B1: 4(+) SELEX holotoxin aptamer (DCE-4) (ssDNA)
DNA: CATCCGTCACACCTGCTCTGCTATCACATGCCTGCTGAAGTGGTGTTGGCTCCCGTATCA
B2: LCA 1(+) (DCE-1) (ssDNA)
DNA: AGTCTAGAGGGCCCCAGAATACACCCGACAACTAGATACCCATCAAAAGTCCAGCAAAGGATGCAGGGGT
B3: LCB 2(+) (DCE-2) (ssDNA)
DNA: AGTCTAGAGGGCCCCAGAATTATCCACTAGCGGGAAGTAGTACATCTCACCCAGCAAAGGATGCAGGGGT
B4: 3(+) SELEX LCA aptamer (DCE-3) (ssDNA)
DNA: CATCCGTCACACCTGCTCTGGGGATGTGTGGTGTTGGCTCCCGTATCAAGGGCGAATTCT

Assays:
[1] = molecular target: Botulinum neurotoxin type A heavy chain (UniProt P0DPI1 P0DPI1:449-1296)
Sequence of Botulinum neurotoxin type A heavy chain (P0DPI1 449-1296, one chain of several): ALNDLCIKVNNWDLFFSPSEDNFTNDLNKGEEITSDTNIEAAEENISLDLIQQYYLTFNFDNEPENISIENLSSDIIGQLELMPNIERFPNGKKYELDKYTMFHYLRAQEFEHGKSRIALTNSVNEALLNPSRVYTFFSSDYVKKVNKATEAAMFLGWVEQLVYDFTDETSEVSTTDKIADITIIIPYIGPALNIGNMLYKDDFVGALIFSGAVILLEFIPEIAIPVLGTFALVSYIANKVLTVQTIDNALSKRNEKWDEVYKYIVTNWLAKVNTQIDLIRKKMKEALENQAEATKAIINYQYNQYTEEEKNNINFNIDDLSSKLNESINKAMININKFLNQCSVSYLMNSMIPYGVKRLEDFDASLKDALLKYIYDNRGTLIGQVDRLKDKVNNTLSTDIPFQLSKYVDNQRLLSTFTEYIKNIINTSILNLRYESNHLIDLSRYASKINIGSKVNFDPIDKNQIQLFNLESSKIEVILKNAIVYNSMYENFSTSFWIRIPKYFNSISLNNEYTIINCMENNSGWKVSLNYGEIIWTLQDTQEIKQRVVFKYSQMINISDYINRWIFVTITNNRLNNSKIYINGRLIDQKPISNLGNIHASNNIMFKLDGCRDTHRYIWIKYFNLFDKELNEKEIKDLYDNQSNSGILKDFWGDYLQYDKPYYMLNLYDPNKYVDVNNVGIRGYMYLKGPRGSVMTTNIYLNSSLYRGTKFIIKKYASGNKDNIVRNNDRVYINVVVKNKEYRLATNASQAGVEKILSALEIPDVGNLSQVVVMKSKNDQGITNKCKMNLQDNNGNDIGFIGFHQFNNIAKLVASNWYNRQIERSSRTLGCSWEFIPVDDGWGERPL

[2] = molecular target: Botulinum neurotoxin type B heavy chain (UniProt B1INP5 B1INP5:442-1291)
Sequence of Botulinum neurotoxin type B heavy chain (B1INP5 442-1291, one chain of several): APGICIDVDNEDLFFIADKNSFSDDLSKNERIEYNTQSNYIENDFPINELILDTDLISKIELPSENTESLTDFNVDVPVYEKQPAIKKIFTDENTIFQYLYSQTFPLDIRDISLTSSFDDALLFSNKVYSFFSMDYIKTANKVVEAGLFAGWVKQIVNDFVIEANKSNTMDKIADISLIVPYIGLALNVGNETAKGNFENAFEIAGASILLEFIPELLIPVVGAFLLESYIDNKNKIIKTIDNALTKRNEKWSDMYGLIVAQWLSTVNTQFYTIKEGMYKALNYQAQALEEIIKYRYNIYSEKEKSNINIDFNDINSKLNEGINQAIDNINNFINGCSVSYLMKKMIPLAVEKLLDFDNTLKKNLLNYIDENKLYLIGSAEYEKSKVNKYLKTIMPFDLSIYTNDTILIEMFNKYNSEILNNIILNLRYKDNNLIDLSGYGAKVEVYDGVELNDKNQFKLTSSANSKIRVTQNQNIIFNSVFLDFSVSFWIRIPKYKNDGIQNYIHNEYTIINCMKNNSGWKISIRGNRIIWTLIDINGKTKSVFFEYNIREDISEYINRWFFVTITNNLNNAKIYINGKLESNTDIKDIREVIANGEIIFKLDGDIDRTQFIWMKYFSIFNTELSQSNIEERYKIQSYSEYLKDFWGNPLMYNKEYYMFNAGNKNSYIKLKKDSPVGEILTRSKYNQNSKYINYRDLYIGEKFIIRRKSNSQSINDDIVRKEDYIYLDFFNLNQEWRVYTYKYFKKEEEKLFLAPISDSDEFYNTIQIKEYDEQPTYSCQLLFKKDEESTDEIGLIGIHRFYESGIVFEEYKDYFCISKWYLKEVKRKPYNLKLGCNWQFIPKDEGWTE

[3] = molecular target: Botulinum neurotoxin type A light chain (UniProt P0DPI1 P0DPI1:2-448)
Sequence of Botulinum neurotoxin type A light chain (P0DPI1 2-448, one chain of several): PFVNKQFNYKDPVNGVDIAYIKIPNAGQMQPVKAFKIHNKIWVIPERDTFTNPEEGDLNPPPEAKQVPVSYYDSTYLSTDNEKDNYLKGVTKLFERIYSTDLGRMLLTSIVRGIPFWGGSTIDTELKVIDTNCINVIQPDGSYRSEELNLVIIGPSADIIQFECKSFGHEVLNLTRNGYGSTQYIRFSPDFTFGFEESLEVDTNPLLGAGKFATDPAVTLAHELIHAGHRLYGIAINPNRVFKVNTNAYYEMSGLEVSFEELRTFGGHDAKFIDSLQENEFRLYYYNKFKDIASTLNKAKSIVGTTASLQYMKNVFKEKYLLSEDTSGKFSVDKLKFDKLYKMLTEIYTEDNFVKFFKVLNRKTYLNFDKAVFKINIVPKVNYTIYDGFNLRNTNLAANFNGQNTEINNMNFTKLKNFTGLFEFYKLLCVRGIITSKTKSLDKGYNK

[4] = molecular target: Botulinum neurotoxin type B light chain (UniProt B1INP5 B1INP5:2-441)
Sequence of Botulinum neurotoxin type B light chain (B1INP5 2-441, one chain of several): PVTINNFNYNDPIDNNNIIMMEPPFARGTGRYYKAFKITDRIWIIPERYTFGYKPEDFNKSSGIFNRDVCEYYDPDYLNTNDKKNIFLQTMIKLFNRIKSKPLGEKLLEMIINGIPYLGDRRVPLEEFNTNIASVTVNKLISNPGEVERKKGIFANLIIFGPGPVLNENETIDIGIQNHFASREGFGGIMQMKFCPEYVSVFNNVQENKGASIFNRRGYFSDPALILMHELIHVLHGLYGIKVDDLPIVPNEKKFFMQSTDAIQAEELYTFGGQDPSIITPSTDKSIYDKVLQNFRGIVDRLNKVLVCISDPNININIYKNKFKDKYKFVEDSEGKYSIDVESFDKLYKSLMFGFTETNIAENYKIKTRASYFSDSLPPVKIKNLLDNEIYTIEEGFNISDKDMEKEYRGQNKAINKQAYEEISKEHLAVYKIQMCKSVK

Row | Binder | binding result [1] | binding result [2] | binding result [3] | binding result [4]
1 | B1 | binds | binds | – | –
2 | B2 | no binding | no binding | binds | –
3 | B3 | – | – | – | binds
4 | B4 | binds | binds | binds | binds
